B1: FADD (other, UniProt Q13158 1-208, looked up)
chain: MDPFLVLLHSVSSSLSSSELTELKFLCLGRVGKRKLERVQSGLDLFSMLLEQNDLEPGHTELLRELLASLRRHDLLRRVDDFEAGAAAGAAPGEEDLCAAFNVICDNVGKDWRRLARQLKVSDTKIDSIEDRYPRNLTERVRESLRIWKNTEKENATVAHLVGALRSCQMNLVADLVQEVQQARDLQNRSGAMSPMSWNSDASTSEAS
notes: Detected with a polyclonal antibody to FADD; also called FADD/MORT1
B2: myc-tagged TRADD (other, UniProt Q15628 1-312, looked up)
chain: MAAGQNGHEEWVGSAYLFVESSLDKVVLSDAYAHPQQKVAVYRALQAALAESGGSPDVLQMLKIHRSDPQLIVQLRFCGRQPCGRFLRAYREGALRAALQRSLAAALAQHSVPLQLELRAGAERLDALLADEERCLSCILAQQPDRLRDEELAELEDALRNLKCGSGARGGDGEVASAPLQPPVPSLSEVKPPPPPPPAQTFLFQGQPVVNRPLSLKDQQTFARSVGLKWRKVGRSLQRGCRALRDPALDSLAYEYEREGLYEQAFQLLRRFVQAEGRRATLQRLVEALEENELTSLAEDLLGLTDPNGGLA
notes: Detected with HRP-conjugated antibody to myc; also called myc-TRADD; not shown: myc tag

Key:
[1] = target: T1, DR5 (expression construct in 293 cells, precipitated with Flag M2 antibody gel) (human, UniProt O14763 52-440); assay: co-immunoprecipitation from co-transfected 293 cell lysates with Flag M2 antibody gel; immunoblot with polyclonal antibody to FADD
T1 construct: also called Death Domain Containing Receptor 5; HLYBX88; not shown: Flag tag implied by immunoprecipitation with Flag M2 gel

[2] = target: T1, DR5 (expression construct in 293 cells, …); assay: co-immunoprecipitation from co-transfected 293 cell lysates with Flag M2 antibody gel; immunoblot with HRP-conjugated antibody to myc

Binder	binding result [1]	binding result [2]
B1	no binding	–
B2	–	no binding

Source: patent EP1788086A1 (HUMAN GENOME SCIENCES, INC., dated 2007)
